From PMC9482650, “Quantitative fragmentomics allow affinity mapping of interactomes” (Nature Communications, 2022)
Values belong to the binder of their own block, whether it stands above or below them.

Key:
Assay in all cases: holdup assay
Parameters in all cases: key: below the threshold = too weak to quantify, mostly under pKd 3.1 to 4
APBA2_2, Q99767 = molecular target: T1, APBA2_2, Q99767
T1 sequence (Q99767 654-744, limits assumed, looked up): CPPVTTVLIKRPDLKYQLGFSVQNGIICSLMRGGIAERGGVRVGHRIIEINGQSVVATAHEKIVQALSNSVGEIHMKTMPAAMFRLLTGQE

CARD11, Q9BXL7 = molecular target: T2, CARD11, Q9BXL7
T2 sequence (Q9BXL7 662-765, limits assumed, looked up): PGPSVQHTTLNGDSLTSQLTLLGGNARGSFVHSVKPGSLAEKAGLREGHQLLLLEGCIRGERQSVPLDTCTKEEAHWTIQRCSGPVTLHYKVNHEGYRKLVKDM

CASK, O14936 = molecular target: CASK, O14936
DFNB31_1, Q9P202 = molecular target: T3, DFNB31_1, Q9P202
T3 sequence (Q9P202 135-233, limits assumed, looked up): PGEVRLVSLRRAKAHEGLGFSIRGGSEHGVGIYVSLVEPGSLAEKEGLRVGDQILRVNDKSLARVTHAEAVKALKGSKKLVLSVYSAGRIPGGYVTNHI

FRMPD2_2, Q68DX3 = molecular target: FRMPD2_2, Q68DX3
GRID2IP_1, A4D2P6 = molecular target: GRID2IP_1, A4D2P6
GRID2IP_2, A4D2P6 = molecular target: GRID2IP_2, A4D2P6
GRIP1_2, Q9Y3R0 = molecular target: T4, GRIP1_2, Q9Y3R0
T4 sequence (Q9Y3R0 145-248, limits assumed, looked up): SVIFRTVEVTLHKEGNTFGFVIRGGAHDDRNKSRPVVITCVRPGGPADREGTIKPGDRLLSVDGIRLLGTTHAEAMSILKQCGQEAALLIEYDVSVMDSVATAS

GRIP1_3, Q9Y3R0 = molecular target: T5, GRIP1_3, Q9Y3R0
T5 sequence (Q9Y3R0 247-346, limits assumed, looked up): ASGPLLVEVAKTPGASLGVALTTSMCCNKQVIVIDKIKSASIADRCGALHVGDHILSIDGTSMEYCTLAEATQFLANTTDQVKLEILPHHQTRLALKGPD

GRIP1_7, Q9Y3R0 = molecular target: T6, GRIP1_7, Q9Y3R0
T6 sequence (Q9Y3R0 999-1096, limits assumed, looked up): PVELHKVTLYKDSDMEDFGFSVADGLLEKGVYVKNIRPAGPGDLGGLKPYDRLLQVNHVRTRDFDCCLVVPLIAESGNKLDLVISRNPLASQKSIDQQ

GRIP2_4, Q9C0E4 = molecular target: GRIP2_4, Q9C0E4
IL16_1, Q14005 = molecular target: IL16_1, Q14005
Inadl_6, Q8NI35 = conditions: plain residues with an end cap or a label only (N-terminal biotin on a linker: ahx)
Inadl_9, Q8NI35 = conditions: plain residues with an end cap or a label only (N-terminal biotin on a linker: ahx)
LIMK2, P53671 = molecular target: LIMK2, P53671
LNX1_2, Q8TBB1 = molecular target: LNX1_2, Q8TBB1
LNX2_3, Q8N448 = molecular target: T7, LNX2_3, Q8N448
T7 sequence (Q8N448 463-564, limits assumed, looked up): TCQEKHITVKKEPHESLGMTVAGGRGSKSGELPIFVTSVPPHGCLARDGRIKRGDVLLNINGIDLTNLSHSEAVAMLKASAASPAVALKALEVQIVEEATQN

MAGI1_1, Q96QZ7 = molecular target: MAGI1_1, Q96QZ7
MAGI2_2, Q86UL8 = molecular target: MAGI2_2, Q86UL8
MAGI2_5, Q86UL8 = molecular target: MAGI2_5, Q86UL8
MPDZ_12, O75970 = molecular target: T8, MPDZ_12, O75970
T8 sequence (O75970 1857-1958, limits assumed, looked up): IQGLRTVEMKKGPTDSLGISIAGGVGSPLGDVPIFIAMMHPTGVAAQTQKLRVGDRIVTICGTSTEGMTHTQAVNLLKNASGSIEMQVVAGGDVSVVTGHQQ

NHERF3_3, Q5T2W1 = molecular target: T9, NHERF3_3, Q5T2W1
T9 sequence (Q5T2W1 238-333, limits assumed, looked up): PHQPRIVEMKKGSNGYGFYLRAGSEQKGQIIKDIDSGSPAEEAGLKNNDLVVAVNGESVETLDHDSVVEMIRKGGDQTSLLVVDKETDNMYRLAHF

NHERF4_4, Q86UT5 = molecular target: NHERF4_4, Q86UT5
PDLIM1, O00151 = molecular target: PDLIM1, O00151
RADIL, Q96JH8 = molecular target: T10, RADIL, Q96JH8
T10 sequence (Q96JH8 971-1071, limits assumed, looked up): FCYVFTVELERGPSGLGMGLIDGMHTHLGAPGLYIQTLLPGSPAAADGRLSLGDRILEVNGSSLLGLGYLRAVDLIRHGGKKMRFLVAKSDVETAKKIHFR

SIPA1L2, Q9P2F8 = molecular target: T11, SIPA1L2, Q9P2F8
T11 sequence (Q9P2F8 945-1036, limits assumed, looked up): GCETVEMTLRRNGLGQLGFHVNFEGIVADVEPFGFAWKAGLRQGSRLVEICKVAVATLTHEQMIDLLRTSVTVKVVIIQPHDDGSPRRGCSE

ARHGEF12, Q9NZN5-2 = conditions: plain residues with an end cap or a label only (N-terminal biotin on a linker: ttds)
[1] = plain residues with an end cap or a label only (N-terminal biotin on a linker: ahx)
[2] = plain residues with an end cap or a label only (N-terminal biotin on a linker: ttds)

Chain of NHERF4_4, Q86UT5 (Q86UT5 464-550): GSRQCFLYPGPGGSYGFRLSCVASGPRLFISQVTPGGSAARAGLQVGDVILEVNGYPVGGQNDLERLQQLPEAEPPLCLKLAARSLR
Chain of GRID2IP_1, A4D2P6 (A4D2P6 1-87): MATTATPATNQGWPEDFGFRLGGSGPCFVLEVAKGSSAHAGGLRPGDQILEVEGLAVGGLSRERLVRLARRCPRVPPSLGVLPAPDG
Chain of GRID2IP_2, A4D2P6 (A4D2P6 272-370): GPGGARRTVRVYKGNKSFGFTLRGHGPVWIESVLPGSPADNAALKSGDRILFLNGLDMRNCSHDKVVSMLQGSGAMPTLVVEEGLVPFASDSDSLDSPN
Chain of GRIP2_4, Q9C0E4 (Q9C0E4 446-548): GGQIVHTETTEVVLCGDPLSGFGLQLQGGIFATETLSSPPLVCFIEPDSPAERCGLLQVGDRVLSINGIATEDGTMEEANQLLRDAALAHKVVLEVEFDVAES
Chain of PDLIM1, O00151 (O00151 1-87): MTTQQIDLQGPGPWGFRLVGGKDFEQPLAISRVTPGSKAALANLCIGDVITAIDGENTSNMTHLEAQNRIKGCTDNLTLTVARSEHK
Chain of MAGI2_2, Q86UL8 (Q86UL8 410-522): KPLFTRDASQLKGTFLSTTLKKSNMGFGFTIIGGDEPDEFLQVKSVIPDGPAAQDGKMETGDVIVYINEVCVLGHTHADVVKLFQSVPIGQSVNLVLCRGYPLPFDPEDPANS
Chain of MAGI2_5, Q86UL8 (Q86UL8 915-1017): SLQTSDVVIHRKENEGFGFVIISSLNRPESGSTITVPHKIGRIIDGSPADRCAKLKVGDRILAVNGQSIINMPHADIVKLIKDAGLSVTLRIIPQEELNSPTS
Chain of LNX1_2, Q8TBB1 (Q8TBB1 371-470): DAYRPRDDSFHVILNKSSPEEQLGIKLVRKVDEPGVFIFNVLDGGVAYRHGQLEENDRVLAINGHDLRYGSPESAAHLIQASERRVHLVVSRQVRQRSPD
Chain of FRMPD2_2, Q68DX3 (Q68DX3 944-1038): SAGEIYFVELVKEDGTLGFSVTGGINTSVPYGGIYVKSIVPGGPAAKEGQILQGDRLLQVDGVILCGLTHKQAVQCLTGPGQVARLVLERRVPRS
Chain of IL16_1, Q14005 (Q14005 210-306): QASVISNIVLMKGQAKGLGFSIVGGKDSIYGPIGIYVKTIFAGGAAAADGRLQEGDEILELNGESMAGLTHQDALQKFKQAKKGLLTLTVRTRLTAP
Chain of LIMK2, P53671 (P53671 143-248): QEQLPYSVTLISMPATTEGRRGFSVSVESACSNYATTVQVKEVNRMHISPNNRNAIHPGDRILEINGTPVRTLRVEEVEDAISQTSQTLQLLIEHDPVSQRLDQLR
Chain of MAGI1_1, Q96QZ7 (Q96QZ7 1-106): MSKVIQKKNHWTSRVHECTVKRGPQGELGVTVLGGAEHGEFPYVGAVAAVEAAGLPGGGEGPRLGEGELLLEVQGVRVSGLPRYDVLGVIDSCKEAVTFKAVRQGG
Chain of CASK, O14936 (O14936 487-570): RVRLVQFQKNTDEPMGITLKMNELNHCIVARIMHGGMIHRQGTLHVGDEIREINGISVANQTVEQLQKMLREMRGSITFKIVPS
Chain of Inadl_6, Q8NI35 (Q8NI35 1058-1167): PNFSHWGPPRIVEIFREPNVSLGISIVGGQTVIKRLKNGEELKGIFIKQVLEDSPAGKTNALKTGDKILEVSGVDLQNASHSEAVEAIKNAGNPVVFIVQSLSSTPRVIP
Chain of ARHGEF12, Q9NZN5-2 (Q9NZN5 other isoform, or with tags, fused parts or gaps): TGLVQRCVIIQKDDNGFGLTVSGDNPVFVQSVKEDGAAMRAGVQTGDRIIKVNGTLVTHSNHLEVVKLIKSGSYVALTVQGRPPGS
Chain of Inadl_9, Q8NI35 (Q8NI35 1530-1615): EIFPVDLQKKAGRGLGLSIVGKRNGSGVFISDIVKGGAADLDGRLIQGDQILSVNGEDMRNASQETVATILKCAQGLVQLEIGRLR

pKd (APBA2_2, Q99767; [1]): below the threshold | pKd (CARD11, Q9BXL7; [1]): below the threshold | pKd (CASK, O14936; [1]): below the threshold | pKd (DFNB31_1, Q9P202; [1]): below the threshold | pKd (FRMPD2_2, Q68DX3; [1]): below the threshold | pKd (GRID2IP_1, A4D2P6; [1]): below the threshold | pKd (GRID2IP_2, A4D2P6; [1]): below the threshold | pKd (GRIP1_2, Q9Y3R0; [1]): below the threshold | pKd (GRIP1_3, Q9Y3R0; [1]): below the threshold | pKd (GRIP1_7, Q9Y3R0; [1]): below the threshold | pKd (GRIP2_4, Q9C0E4; [1]): below the threshold | pKd (IL16_1, Q14005; [1]): below the threshold | pKd (Inadl_6, Q8NI35): below the threshold | pKd (Inadl_9, Q8NI35): below the threshold | pKd (LIMK2, P53671; [1]): below the threshold | pKd (LNX1_2, Q8TBB1; [1]): below the threshold | pKd (LNX2_3, Q8N448; [1]): below the threshold | pKd (MAGI1_1, Q96QZ7; [1]): below the threshold | pKd (MAGI2_2, Q86UL8; [1]): below the threshold | pKd (MAGI2_5, Q86UL8; [1]): 4.36 | pKd (MPDZ_12, O75970; [1]): below the threshold | pKd (NHERF3_3, Q5T2W1; [1]): below the threshold | pKd (NHERF4_4, Q86UT5; [1]): below the threshold | pKd (PDLIM1, O00151; [1]): below the threshold | pKd (RADIL, Q96JH8; [1]): 3.98 | pKd (SIPA1L2, Q9P2F8; [1]): below the threshold
Binder: LSDPSVSTVV [GRIN1, Q05586;Q05586-2]

pKd (APBA2_2, Q99767; [2]): below the threshold | pKd (ARHGEF12, Q9NZN5-2): 4.53 | pKd (CARD11, Q9BXL7; [2]): 3.64 | pKd (CASK, O14936; [2]): below the threshold | pKd (DFNB31_1, Q9P202; [2]): 3.53 | pKd (FRMPD2_2, Q68DX3; [2]): 3.78 | pKd (GRID2IP_1, A4D2P6; [2]): below the threshold | pKd (GRID2IP_2, A4D2P6; [2]): 3.93 | pKd (GRIP1_2, Q9Y3R0; [2]): 3.72 | pKd (GRIP1_3, Q9Y3R0; [2]): below the threshold | pKd (GRIP1_7, Q9Y3R0; [2]): below the threshold | pKd (GRIP2_4, Q9C0E4; [2]): below the threshold | pKd (IL16_1, Q14005; [2]): below the threshold | pKd (LIMK2, P53671; [2]): 3.52 | pKd (LNX1_2, Q8TBB1; [2]): 3.67 | pKd (LNX2_3, Q8N448; [2]): below the threshold | pKd (MAGI1_1, Q96QZ7; [2]): below the threshold | pKd (MAGI2_2, Q86UL8; [2]): 4.31 | pKd (MAGI2_5, Q86UL8; [2]): below the threshold | pKd (MPDZ_12, O75970; [2]): below the threshold | pKd (NHERF3_3, Q5T2W1; [2]): below the threshold | pKd (NHERF4_4, Q86UT5; [2]): below the threshold | pKd (PDLIM1, O00151; [2]): below the threshold | pKd (RADIL, Q96JH8; [2]): 3.99 | pKd (SIPA1L2, Q9P2F8; [2]): below the threshold
Binder: EMDRRPATVV [PLCB4, Q15147]
